Assay results: publication PMC8557139, “Characterization of a thermotolerant aryl-alcohol oxidase from Moesziomyces antarcticus oxidizing 5-hydroxymethyl-2-furancarboxylic acid” (Applied Microbiology and Biotechnology, 2021)

Experiments:
[1] = biological target: T1, MaAAO (Moesziomyces antarcticus, UniProt A0A081CNK9); assay: UV/Vis spectrum of native and heat-denatured enzyme; type: binding; conditions: non-covalently bound
T1 construct: gene PAN0_057d6495; expressed with native signal peptide, secreted from Pichia pastoris X-33 (pPICZA); purified; non-covalent FAD; codon-optimised synthetic gene
T1 sequence (A0A081CNK9 20-638): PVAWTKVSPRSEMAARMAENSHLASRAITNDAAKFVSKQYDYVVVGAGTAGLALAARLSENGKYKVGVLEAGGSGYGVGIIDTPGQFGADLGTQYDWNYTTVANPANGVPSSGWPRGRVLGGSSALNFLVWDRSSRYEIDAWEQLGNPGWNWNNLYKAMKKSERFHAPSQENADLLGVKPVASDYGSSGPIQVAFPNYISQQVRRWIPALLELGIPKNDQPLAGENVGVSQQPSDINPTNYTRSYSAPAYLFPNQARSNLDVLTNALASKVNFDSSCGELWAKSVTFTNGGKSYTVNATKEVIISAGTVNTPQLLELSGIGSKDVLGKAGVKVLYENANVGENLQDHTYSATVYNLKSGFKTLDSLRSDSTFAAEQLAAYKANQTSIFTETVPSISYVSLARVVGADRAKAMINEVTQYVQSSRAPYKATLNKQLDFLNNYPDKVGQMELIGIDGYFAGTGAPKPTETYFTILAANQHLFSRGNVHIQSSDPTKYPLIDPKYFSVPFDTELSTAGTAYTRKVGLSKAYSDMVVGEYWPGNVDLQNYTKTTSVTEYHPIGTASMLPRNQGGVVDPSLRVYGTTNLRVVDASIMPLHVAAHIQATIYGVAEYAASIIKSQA

[2] = biological target: T1, MaAAO; assay: m-anisaldehyde formation at […] nm; substrate excess inhibition fit; type: biochemical; conditions: co-substrate O2, 100 mM phosphate pH 6.0, 25 °C
[3] = biological target: T1, MaAAO; assay: benzaldehyde formation at […] nm; substrate excess inhibition fit; type: biochemical; conditions: co-substrate O2, 100 mM phosphate pH 6.0, 25 °C
[4] = biological target: T1, MaAAO; assay: coupled […],6-DMP-HRP assay; substrate excess inhibition fit; type: biochemical; conditions: co-substrate O2, potassium phosphate pH 6.0, 25 °C
[5] = substrate: C=C(C)[C@@H]1CC=C(CO)CC1; assay: purified protein; type: biochemical, Moesziomyces antarcticus; conditions: co-substrate O2, 50 mM (text: 100 mM) potassium phosphate pH 6.0, 25 °C
[6] = substrate: OC/C=C/c1ccccc1; assay: purified protein; type: biochemical, Moesziomyces antarcticus; conditions: co-substrate O2, 100 mM phosphate pH 6.0, 25 °C
[7] = substrate: OCc1ccccc1; assay: purified protein; type: biochemical, Moesziomyces antarcticus; conditions: co-substrate O2, 100 mM phosphate pH 6.0, 25 °C, fit with substrate excess inhibition
[8] = substrate: OCc1ccc2c(c1)OCO2; assay: purified protein; type: biochemical, Moesziomyces antarcticus; conditions: co-substrate O2, 100 mM phosphate pH 6.0, 25 °C
[9] = substrate: COc1cc(CO)ccc1O; assay: purified protein; type: biochemical, Moesziomyces antarcticus; conditions: co-substrate O2, 100 mM phosphate pH 6.0, 25 °C
[10] = substrate: Nc1cccc(CO)c1; assay: purified protein; type: biochemical, Moesziomyces antarcticus; conditions: co-substrate O2, 50 mM (text: 100 mM) potassium phosphate pH 6.0, 25 °C, fit with substrate excess inhibition
[11] = substrate: COc1ccc(CO)cc1OC; assay: purified protein; type: biochemical, Moesziomyces antarcticus; conditions: co-substrate O2, 100 mM phosphate pH 6.0, 25 °C
[12] = substrate: O=Cc1ccc(CO)o1; assay: purified protein; type: biochemical, Moesziomyces antarcticus; conditions: co-substrate O2, 50 mM (text: 100 mM) potassium phosphate pH 6.0, 25 °C
[13] = substrate: C/C=C/C=C/CO; assay: purified protein; type: biochemical, Moesziomyces antarcticus; conditions: co-substrate O2, 100 mM phosphate pH 6.0, 25 °C
[14] = substrate: COc1ccc(CO)c(OC)c1; assay: purified protein; type: biochemical, Moesziomyces antarcticus; conditions: co-substrate O2, 100 mM phosphate pH 6.0, 25 °C
[15] = substrate: COc1ccc(CO)cc1O; assay: purified protein; type: biochemical, Moesziomyces antarcticus; conditions: co-substrate O2, 100 mM phosphate pH 6.0, 25 °C

How did the “UV/Vis spectrum of native and heat-denatured enzyme” value [1] turn out when `Cc1cc2nc3c(=O)[nH]c(=O)nc-3n(C[C@H](O)[C@H](O)[C@H](O)COP(=O)(O)OP(=O)(O)OC[C@H]3O[C@@H](n4cnc5c(N)ncnc54)[C@H](O)[C@@H]3O)c2cc1C` [FAD] was run?
Its value is “confirmed that MaAAO contains a non-covalently bound FAD cofactor”.

How did the KIU [2] turn out when `COc1cccc(CO)c1` [m-Anisyl alcohol] was run?
Its KIU is 2.09 ± 0.33 mM.

For `OCc1ccccc1` [Benzyl alcohol], which KIU [3] is on record?
Its KIU is 1.39 ± 0.35 mM.

For `Nc1cccc(CO)c1` [3-Aminobenzyl alcohol], which KIU [4] is on record?
The KIU was 3.27 ± 0.98 mM.

B1: MaAAO (Moesziomyces antarcticus) (protein)
chain: T1 sequence (A0A081CNK9 20-638)
notes: expressed with native signal peptide, secreted from Pichia pastoris X-33 (pPICZA); purified; non-covalent FAD; codon-optimised synthetic gene
B1 was tested. Which Km [5] did it give?
Its Km is 23.7 ± 1.7 µM.

And the kcat [5]?
Its kcat is 9.2 s⁻¹.

And the kcat/Km [5]?
Its kcat/Km is 387000 M⁻¹ s⁻¹.

What about the Km [6] of the same molecule?
Its Km is 26.9 µM.

What about the kcat [6] of the same molecule?
The kcat was 8.9 s⁻¹.

And the kcat/Km [6]?
Its kcat/Km is 332000 M⁻¹ s⁻¹.

What about the kcat [7] of the same molecule?
Its kcat is 11.2 s⁻¹.

And the kcat/Km [7]?
Its kcat/Km is 745000 M⁻¹ s⁻¹.

And the Km [8]?
Its Km is 12.2 ± 1.0 µM.

And the kcat [8]?
The kcat was 11.3 s⁻¹.

And the kcat/Km [8]?
Its kcat/Km is 926000 M⁻¹ s⁻¹.

And the Km [9]?
The Km was 30.0 ± 2.4 µM.

And the kcat [9]?
Its kcat is 10.6 s⁻¹.

And the kcat/Km [9]?
Its kcat/Km is 354000 M⁻¹ s⁻¹.

What about the Km [10] of the same molecule?
Its Km is 1.74 ± 0.24 µM.

And the kcat [10]?
The kcat was 6.4 s⁻¹.

What about the kcat/Km [10] of the same molecule?
Its kcat/Km is 3.67e+06 M⁻¹ s⁻¹.

What about the Km [11] of the same molecule?
Its Km is 119.0 ± 7.0 µM.

And the kcat [11]?
The kcat was 11.7 s⁻¹.

What about the kcat/Km [11] of the same molecule?
The kcat/Km was 98000 M⁻¹ s⁻¹.

What about the Km [12] of the same molecule?
The Km was 341 ± 20 µM.

What about the kcat [12] of the same molecule?
The kcat was 5.4 s⁻¹.

And the kcat/Km [12]?
The kcat/Km was 15700 M⁻¹ s⁻¹.

And the Km [13]?
The Km was 26.5 ± 1.7 µM.

And the kcat [13]?
Its kcat is 11.5 s⁻¹.

And the kcat/Km [13]?
Its kcat/Km is 435000 M⁻¹ s⁻¹.

And the Km [14]?
The Km was 582 µM.

What about the Km [15] of the same molecule?
The Km was 60.9 ± 6.7 µM.

And the kcat [15]?
Its kcat is 9.6 s⁻¹.

And the kcat/Km [15]?
The kcat/Km was 158000 M⁻¹ s⁻¹.
